{
  "source": "paper PMC6691274",
  "about": "(Molecular Medicine Reports, 2019)",
  "origin": "cited, not measured here",
  "key": {"[1]": {"molecular_target": "T1, GLP-1R (Rattus norvegicus, UniProt P32301)", "T1 sequence (P32301 22-463)": "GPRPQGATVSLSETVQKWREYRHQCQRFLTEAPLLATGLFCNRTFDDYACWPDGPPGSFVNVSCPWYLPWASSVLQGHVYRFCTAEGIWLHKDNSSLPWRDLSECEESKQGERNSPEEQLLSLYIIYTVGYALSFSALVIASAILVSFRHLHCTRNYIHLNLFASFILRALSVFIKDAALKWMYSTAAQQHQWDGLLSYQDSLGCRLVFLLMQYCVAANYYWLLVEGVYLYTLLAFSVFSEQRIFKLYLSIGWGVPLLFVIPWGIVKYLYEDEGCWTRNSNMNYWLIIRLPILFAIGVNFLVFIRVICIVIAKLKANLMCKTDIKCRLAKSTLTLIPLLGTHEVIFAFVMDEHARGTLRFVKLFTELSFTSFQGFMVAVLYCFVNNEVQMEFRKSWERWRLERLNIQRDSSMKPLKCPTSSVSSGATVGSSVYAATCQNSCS", "conditions": "INS-1 rat insulinoma xenograft model and rat MI/R model"}, "[2]": {"tested_on": "dipeptidyl-peptidase-IV (DPP-IV)"}},
  "note": "Where two headings read alike, the source gives them in different places.",
  "data": [
    {"substance": "^18F-4-fluorobenzamido-N-ethylamino-maleimide (FBEM)-Cys^40-exendin-4 [^18F-FBEM-Cys^40-exendin-4]", "values": [
      {"measurement": "Affinity with GLP-1R", "setting": "[1]", "result": "high affinity"}
    ]},
    {"substance": "Exendin-4: an analog of GLP-1 with 53% amino acid homology, resistant to DPP-IV", "values": [
      {"measurement": "Stability towards DPP-IV", "setting": "[2]", "result": "resistant"}
    ]},
    {"substance": "GLP-1: 30-amino-acid-long gut hormone secreted from intestinal endocrine L-cells", "values": [
      {"measurement": "Stability towards DPP-IV", "setting": "[2]; upon being released into the blood", "result": "rapidly degraded"}
    ]}
  ]
}
